Measurements reported in patent US9260500B2, “Peptide and use thereof” (Takeda Pharmaceutical Company Limited, priority 2009, dated 2016).
Non-standard residues stand in square brackets, D forms with d. No end group written: not given here. *: point of attachment. Phe(3-Me) = Cc1cccc(C[C@H](N)C(=O)O)c1; Cyclohexanecarbonyl = O=C(C1CCCCC1)*; Ala(cPr) = N[C@@H](CC1CC1)C(=O)O; hArg = N=C(N)NCCCC[C@H](N)C(=O)O; tBuAla = CC(C)(C)C[C@H](N)C(=O)O; 4Pal = N[C@@H](Cc1ccncc1)C(=O)O; Cha = N[C@@H](CC1CCCCC1)C(=O)O; dIva = CC[C@@](C)(N)C(=O)O; Isobutyryl = CC(C)C(=O)*; Iva = CC[C@](C)(N)C(=O)O; Nle = CCCC[C@H](N)C(=O)O; Aib = CC(C)(N)C(=O)O; βAla = NCCC(=O)O

Columns and labels:
[1] = target: T1, human Y2 receptor (Homo sapiens, UniProt P49146); test: Receptor Binding Assay (RBA) for Human Y2, [125I]-PYY displacement on hY2R/CHO membrane fraction; settings: IC50 of test compound/IC50 of PYY(3-36) (PYY(3-36) taken as 1)
T1 construct: expressed in transfected cells; membrane fraction
T1 sequence (P49146 1-381): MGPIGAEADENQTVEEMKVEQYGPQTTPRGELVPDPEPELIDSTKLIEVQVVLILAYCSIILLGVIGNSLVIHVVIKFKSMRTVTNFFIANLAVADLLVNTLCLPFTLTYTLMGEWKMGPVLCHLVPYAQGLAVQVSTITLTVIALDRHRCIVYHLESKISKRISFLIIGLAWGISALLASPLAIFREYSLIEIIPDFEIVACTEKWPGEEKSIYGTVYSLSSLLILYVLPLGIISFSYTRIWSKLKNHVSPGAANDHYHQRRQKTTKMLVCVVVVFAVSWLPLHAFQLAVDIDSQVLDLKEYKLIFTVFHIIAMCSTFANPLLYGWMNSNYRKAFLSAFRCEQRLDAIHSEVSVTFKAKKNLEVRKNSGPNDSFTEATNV
How it was run: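 Read-out is [125I]-PYY displacement from membranes of CHO/dhfr− cells stably transfected with human Y2R. Membranes were obtained by disrupting cells in a buffer of 10 mM NaHCO3, 5 mM EDTA and protease inhibitors.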

[2] = target: T1, human Y2 receptor; test: Human Y2 Receptor G Protein Binding Assay (GBA), [35S]GTPγS; format: biochemical; settings: EC50 of test compound/EC50 of PYY(3-36) (PYY3-36 taken as 1), hY2R/CHO membrane fraction
How it was run: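 Agonism measured as [35S]GTPγS binding, read by GF/C filtration and scintillation counting after 120 min at room temperature, using human Y2 membranes at 1 μg protein/mL in pH 7.4 Tris/MgCl2/NaCl/GDP buffer. Compound serially diluted 100 μM–1 nM; EC50 normalized to PYY(3-36) (ratio = compound/PYY).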

Substance | RBA IC50 Ratio [1] | GBA EC50 Ratio [2]
Ac-[D-Pro24, Pya(4)26, Cha27,36, Aib28,31, Trp30]-PYY(23-36) (Ac-S[dP]R[4Pal][Cha][Aib]NW[Aib]TRQR[Cha]-NH2; SMILES CC(=O)N[C@@H](CO)C(=O)N1CCC[C@@H]1C(=O)N[C@@H](CCCNC(=N)N)C(=O)N[C@@H](Cc1ccncc1)C(=O)N[C@@H](CC1CCCCC1)C(=O)NC(C)(C)C(=O)N[C@@H](CC(N)=O)C(=O)N[C@@H](Cc1c[nH]c2ccccc12)C(=O)NC(C)(C)C(=O)N[C@H](C(=O)N[C@@H](CCCNC(=N)N)C(=O)N[C@@H](CCC(N)=O)C(=O)N[C@@H](CCCNC(=N)N)C(=O)N[C@@H](CC1CCCCC1)C(N)=O)[C@@H](C)O) [compound No. 205] | 2.5 | 2.4
Isobutanoyl-[Glu23, D-Pro24, Pya(4)26, Cha27,36, Leu(Me)28, Lys30, Aib31]-PYY(23-36) (Isobutyryl-E[dP]R[4Pal][Cha][tBuAla]NK[Aib]TRQR[Cha]-NH2; SMILES CC(C)C(=O)N[C@@H](CCC(=O)O)C(=O)N1CCC[C@@H]1C(=O)N[C@@H](CCCNC(=N)N)C(=O)N[C@@H](Cc1ccncc1)C(=O)N[C@@H](CC1CCCCC1)C(=O)N[C@@H](CC(C)(C)C)C(=O)N[C@@H](CC(N)=O)C(=O)N[C@@H](CCCCN)C(=O)NC(C)(C)C(=O)N[C@H](C(=O)N[C@@H](CCCNC(=N)N)C(=O)N[C@@H](CCC(N)=O)C(=O)N[C@@H](CCCNC(=N)N)C(=O)N[C@@H](CC1CCCCC1)C(N)=O)[C@@H](C)O) [compound No. 170] | 0.43 | 0.88
Ac-[D-Pro24, Har25, Cha27,36, Aib28,31, Lys30]-PYY(23-36) (Ac-S[dP][hArg]H[Cha][Aib]NK[Aib]TRQR[Cha]-NH2; SMILES CC(=O)N[C@@H](CO)C(=O)N1CCC[C@@H]1C(=O)N[C@@H](CCCCNC(=N)N)C(=O)N[C@@H](Cc1c[nH]cn1)C(=O)N[C@@H](CC1CCCCC1)C(=O)NC(C)(C)C(=O)N[C@@H](CC(N)=O)C(=O)N[C@@H](CCCCN)C(=O)NC(C)(C)C(=O)N[C@H](C(=O)N[C@@H](CCCNC(=N)N)C(=O)N[C@@H](CCC(N)=O)C(=O)N[C@@H](CCCNC(=N)N)C(=O)N[C@@H](CC1CCCCC1)C(N)=O)[C@@H](C)O) [compound No. 291] | 1.2 | 2.7
Ac-[D-Pro24, D-Iva25, Cha27,28,36, Aib31]-PYY(23-36) (Ac-S[dP][dIva]H[Cha][Cha]NL[Aib]TRQR[Cha]-NH2; SMILES CC[C@@](C)(NC(=O)[C@H]1CCCN1C(=O)[C@H](CO)NC(C)=O)C(=O)N[C@@H](Cc1c[nH]cn1)C(=O)N[C@@H](CC1CCCCC1)C(=O)N[C@@H](CC1CCCCC1)C(=O)N[C@@H](CC(N)=O)C(=O)N[C@@H](CC(C)C)C(=O)NC(C)(C)C(=O)N[C@H](C(=O)N[C@@H](CCCNC(=N)N)C(=O)N[C@@H](CCC(N)=O)C(=O)N[C@@H](CCCNC(=N)N)C(=O)N[C@@H](CC1CCCCC1)C(N)=O)[C@@H](C)O) [compound No. 182] | 14 | 11
Cyclohexanecarbonyl-[Cha27,36, Ala(cPr)28, Aib31]-PYY(25-36) (Cyclohexanecarbonyl-RH[Cha][Ala(cPr)]NL[Aib]TRQR[Cha]-NH2; SMILES CC(C)C[C@H](NC(=O)[C@H](CC(N)=O)NC(=O)[C@H](CC1CC1)NC(=O)[C@H](CC1CCCCC1)NC(=O)[C@H](Cc1c[nH]cn1)NC(=O)[C@H](CCCNC(=N)N)NC(=O)C1CCCCC1)C(=O)NC(C)(C)C(=O)N[C@H](C(=O)N[C@@H](CCCNC(=N)N)C(=O)N[C@@H](CCC(N)=O)C(=O)N[C@@H](CCCNC(=N)N)C(=O)N[C@@H](CC1CCCCC1)C(N)=O)[C@@H](C)O) [compound No. 78] | 15 | 23
[βAla23, D-Pro24, Cha27,28,36, Aib31]-PYY(23-36) ([βAla][dP]RH[Cha][Cha]NL[Aib]TRQR[Cha]-NH2; N-terminus assumed; SMILES CC(C)C[C@H](NC(=O)[C@H](CC(N)=O)NC(=O)[C@H](CC1CCCCC1)NC(=O)[C@H](CC1CCCCC1)NC(=O)[C@H](Cc1c[nH]cn1)NC(=O)[C@H](CCCNC(=N)N)NC(=O)[C@H]1CCCN1C(=O)CCN)C(=O)NC(C)(C)C(=O)N[C@H](C(=O)N[C@@H](CCCNC(=N)N)C(=O)N[C@@H](CCC(N)=O)C(=O)N[C@@H](CCCNC(=N)N)C(=O)N[C@@H](CC1CCCCC1)C(N)=O)[C@@H](C)O) [compound No. 116] | 1.7 | 1.2
Ac-[D-Pro24, Iva25, Cha27,28,36, Aib31]-PYY(23-36) (Ac-S[dP][Iva]H[Cha][Cha]NL[Aib]TRQR[Cha]-NH2; SMILES CC[C@](C)(NC(=O)[C@H]1CCCN1C(=O)[C@H](CO)NC(C)=O)C(=O)N[C@@H](Cc1c[nH]cn1)C(=O)N[C@@H](CC1CCCCC1)C(=O)N[C@@H](CC1CCCCC1)C(=O)N[C@@H](CC(N)=O)C(=O)N[C@@H](CC(C)C)C(=O)NC(C)(C)C(=O)N[C@H](C(=O)N[C@@H](CCCNC(=N)N)C(=O)N[C@@H](CCC(N)=O)C(=O)N[C@@H](CCCNC(=N)N)C(=O)N[C@@H](CC1CCCCC1)C(N)=O)[C@@H](C)O) [compound No. 177] | 4.5 | 3.7
Ac-[Glu23, D-Pro24, Nle25, Pya(4)26, Cha27,36, Aib28,31, Lys30]-PYY(23-36) (Ac-E[dP][Nle][4Pal][Cha][Aib]NK[Aib]TRQR[Cha]-NH2; SMILES CCCC[C@H](NC(=O)[C@H]1CCCN1C(=O)[C@H](CCC(=O)O)NC(C)=O)C(=O)N[C@@H](Cc1ccncc1)C(=O)N[C@@H](CC1CCCCC1)C(=O)NC(C)(C)C(=O)N[C@@H](CC(N)=O)C(=O)N[C@@H](CCCCN)C(=O)NC(C)(C)C(=O)N[C@H](C(=O)N[C@@H](CCCNC(=N)N)C(=O)N[C@@H](CCC(N)=O)C(=O)N[C@@H](CCCNC(=N)N)C(=O)N[C@@H](CC1CCCCC1)C(N)=O)[C@@H](C)O) [compound No. 227] | 7.5 | 6.9
Isobutanoyl-[Glu23, D-Pro24, Pya(4)26, Cha27,36, Aib28,31, Lys30]-PYY(23-36) (Isobutyryl-E[dP]R[4Pal][Cha][Aib]NK[Aib]TRQR[Cha]-NH2; SMILES CC(C)C(=O)N[C@@H](CCC(=O)O)C(=O)N1CCC[C@@H]1C(=O)N[C@@H](CCCNC(=N)N)C(=O)N[C@@H](Cc1ccncc1)C(=O)N[C@@H](CC1CCCCC1)C(=O)NC(C)(C)C(=O)N[C@@H](CC(N)=O)C(=O)N[C@@H](CCCCN)C(=O)NC(C)(C)C(=O)N[C@H](C(=O)N[C@@H](CCCNC(=N)N)C(=O)N[C@@H](CCC(N)=O)C(=O)N[C@@H](CCCNC(=N)N)C(=O)N[C@@H](CC1CCCCC1)C(N)=O)[C@@H](C)O) [compound No. 214] | 1.9 | 2.0
Ac-[D-Pro24, Pya(4)26, Cha27, Aib28,31, Lys30, Phe(3Me)36]-PYY(23-36) (Ac-S[dP]R[4Pal][Cha][Aib]NK[Aib]TRQR[Phe(3-Me)]-NH2; SMILES CC(=O)N[C@@H](CO)C(=O)N1CCC[C@@H]1C(=O)N[C@@H](CCCNC(=N)N)C(=O)N[C@@H](Cc1ccncc1)C(=O)N[C@@H](CC1CCCCC1)C(=O)NC(C)(C)C(=O)N[C@@H](CC(N)=O)C(=O)N[C@@H](CCCCN)C(=O)NC(C)(C)C(=O)N[C@H](C(=O)N[C@@H](CCCNC(=N)N)C(=O)N[C@@H](CCC(N)=O)C(=O)N[C@@H](CCCNC(=N)N)C(=O)N[C@@H](Cc1cccc(C)c1)C(N)=O)[C@@H](C)O) [compound No. 260] | 0.91 | 1.2
Ac-[D-Pro24, Pya(4)26, Cha27,36, D-Iva28, Lys30, Iva31]-PYY(23-36) (Ac-S[dP]R[4Pal][Cha][dIva]NK[Iva]TRQR[Cha]-NH2; SMILES CC[C@@](C)(NC(=O)[C@H](CC1CCCCC1)NC(=O)[C@H](Cc1ccncc1)NC(=O)[C@H](CCCNC(=N)N)NC(=O)[C@H]1CCCN1C(=O)[C@H](CO)NC(C)=O)C(=O)N[C@@H](CC(N)=O)C(=O)N[C@@H](CCCCN)C(=O)N[C@@](C)(CC)C(=O)N[C@H](C(=O)N[C@@H](CCCNC(=N)N)C(=O)N[C@@H](CCC(N)=O)C(=O)N[C@@H](CCCNC(=N)N)C(=O)N[C@@H](CC1CCCCC1)C(N)=O)[C@@H](C)O) [compound No. 248] | 3.4 | 1.1
Ac-[D-Pro24, Pya(4)26, Cha27,36, Iva28,31, Lys30]-PYY(23-36) (Ac-S[dP]R[4Pal][Cha][Iva]NK[Iva]TRQR[Cha]-NH2; SMILES CC[C@](C)(NC(=O)[C@H](CC1CCCCC1)NC(=O)[C@H](Cc1ccncc1)NC(=O)[C@H](CCCNC(=N)N)NC(=O)[C@H]1CCCN1C(=O)[C@H](CO)NC(C)=O)C(=O)N[C@@H](CC(N)=O)C(=O)N[C@@H](CCCCN)C(=O)N[C@@](C)(CC)C(=O)N[C@H](C(=O)N[C@@H](CCCNC(=N)N)C(=O)N[C@@H](CCC(N)=O)C(=O)N[C@@H](CCCNC(=N)N)C(=O)N[C@@H](CC1CCCCC1)C(N)=O)[C@@H](C)O) [compound No. 246] | 0.31 | 1
